One test deals with T1, Cynomolgus MCSP D3 (cynomolgus, UniProt Q6UVK1 1582-2224 (human entry), limits assumed).
T1 construct: Soluble analyte in SPR
T1 chain: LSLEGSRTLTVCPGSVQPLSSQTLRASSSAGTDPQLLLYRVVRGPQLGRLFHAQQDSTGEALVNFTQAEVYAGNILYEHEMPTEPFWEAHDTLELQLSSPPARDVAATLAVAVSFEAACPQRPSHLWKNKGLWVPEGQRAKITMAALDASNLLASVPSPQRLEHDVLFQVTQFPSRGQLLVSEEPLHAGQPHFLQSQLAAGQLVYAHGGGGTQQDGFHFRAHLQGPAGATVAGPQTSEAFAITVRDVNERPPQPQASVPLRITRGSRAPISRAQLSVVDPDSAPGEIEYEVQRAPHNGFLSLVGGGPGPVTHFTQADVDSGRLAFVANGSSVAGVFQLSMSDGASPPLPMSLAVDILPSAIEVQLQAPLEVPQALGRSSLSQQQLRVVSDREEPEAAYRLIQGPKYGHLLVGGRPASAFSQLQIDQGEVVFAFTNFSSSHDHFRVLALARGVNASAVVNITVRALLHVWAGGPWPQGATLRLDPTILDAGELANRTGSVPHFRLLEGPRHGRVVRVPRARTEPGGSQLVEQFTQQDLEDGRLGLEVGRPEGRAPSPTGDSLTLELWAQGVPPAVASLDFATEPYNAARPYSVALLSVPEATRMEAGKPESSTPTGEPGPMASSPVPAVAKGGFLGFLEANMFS
Description: SPR Biacore T200, 25 C, IgG captured on anti-human Fab, MCSP D3 as analyte, 1:1 Langmuir fit. Here is the method:
(§1) IgGs were captured on a CM5 sensorchip surface with immobilized anti human Fab. Capture IgG was coupled to the sensorchip surface by direct immobilization of around 10,000 resonance units (RU) at pH 5.0 using the standard amine coupling kit (Biacore, Freiburg/Germany). IgGs are captured for 60 s at 30 nM with 10 μl/min. Human and cynomolgus MCSP D3 were passed at a concentration of 0.49-1000 nM with a flowrate of 30 μl/min through the flow cells over 180 s. The dissociation is monitored for 210 s. Bulk refractive index differences were corrected for by subtracting the response obtained on reference flow cell. Here, the antigens were flown over a surface with immobilized anti-human Fab antibody but on which HBS-EP has been injected rather than anti MCSP IgGs.

The next test deals with T2, Human MCSP D3 (human, UniProt Q6UVK1 1582-2224).
T2 construct: Soluble analyte in SPR; The selection antigen was hu-MCSP(D3 domain)-avi-his; also called hu-MCSP(D3 domain)-avi-his
T2 sequence: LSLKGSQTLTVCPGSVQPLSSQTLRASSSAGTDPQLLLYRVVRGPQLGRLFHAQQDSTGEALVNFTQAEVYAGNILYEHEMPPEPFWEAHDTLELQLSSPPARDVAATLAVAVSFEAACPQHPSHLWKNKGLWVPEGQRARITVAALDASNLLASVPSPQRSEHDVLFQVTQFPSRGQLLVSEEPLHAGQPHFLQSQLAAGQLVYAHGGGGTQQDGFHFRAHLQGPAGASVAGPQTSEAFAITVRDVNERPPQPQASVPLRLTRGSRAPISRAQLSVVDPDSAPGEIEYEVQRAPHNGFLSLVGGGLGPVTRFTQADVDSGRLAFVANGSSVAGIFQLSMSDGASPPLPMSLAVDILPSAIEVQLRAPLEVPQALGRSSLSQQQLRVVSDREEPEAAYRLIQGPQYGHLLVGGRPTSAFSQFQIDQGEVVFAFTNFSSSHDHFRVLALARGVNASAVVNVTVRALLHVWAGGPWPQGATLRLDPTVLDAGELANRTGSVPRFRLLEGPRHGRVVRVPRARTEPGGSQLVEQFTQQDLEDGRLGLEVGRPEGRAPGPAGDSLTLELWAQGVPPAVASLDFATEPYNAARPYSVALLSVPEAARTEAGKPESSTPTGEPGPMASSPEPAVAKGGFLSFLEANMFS
The description is as above. Here is the method: as §1

B1: M4-3 ML2 (parental) (antibody, human IgG1, kappa, V domains shown)
VH: QVQLQESGPGLVKPSQTLSLTCTVSGGSITSGYYWNWIRQHPGKGLEWIGYITYDGSNNYNPSLKSRVTISRDTSKNQFSLKLSSVTAADTAVYYCADFDYWGQGTLVTVSS
VL: DIQMTQSPSSLSASVGDRVTITCRASQGIRNYLNWYQQKPGKAPKLLIYYTSSLHSGVPSRFSGSGSGTDFTLTISSLQPEDFATYYCQQYSKLPWTFGQGTKVEIKR
notes: Non-matured parental humanized IgG; also called humanized antibody M4-3 ML2
As to B1, the Kd (in general, a measure of binding affinity in units of concentration) stood at 82.5 nM with Cynomolgus MCSP D3 and 24.2 nM with Human MCSP D3.

B2: M4-3 (C1) ML2 (antibody, human IgG1, V domains shown)
VH: QVQLQESGPGLVKPSQTLSLTCTVSGGSITSGYYWNWIRQHPGKGLEWIGYITFDGSNNYNPSLKSRVTISRDTSKNQFSLKLSSVTAADTAVYYCADFDYWGQGTLVTVSS
VL: DIQMTQSPSSLSASVGDRVTITCRASQGIRNYLNWYQQKPGKAPKLLIYYTSSLHSGVPSRFSGSGSGTDFTLTISSLQPEDFATYYCQQYSKLPWTFGQGTKVEIK
Consider B2, for which the Kd worked out at 9.8 nM in the test with Cynomolgus MCSP D3 and 7.2 nM with Human MCSP D3.

B3: M4-3 ML2 (E10) (antibody, human IgG1, V domains shown)
VH: QVQLQESGPGLVKPSQTLSLTCTVSGGSITSGYYWNWIRQHPGKGLEWIGYITYDGSNNYNPSLKSRVTISRDTSKNQFSLKLSSVTAADTAVYYCADFDYWGQGTLVTVSS
VL: DIQMTQSPSSLSASVGDRVTITCRASYGIRGYLNWYQQKPGKAPKLLIYYTSSLHSGVPSRFSGSGSGTDFTLTISSLQPEDFATYHCQQYSKLPWTFGQGTKVEIK
With B3, the Kd with Cynomolgus MCSP D3 was found to be 62.8 nM; in the test with Human MCSP D3, 21.4 nM.

B4: M4-3 (B7) ML2 (antibody, human IgG1, V domains shown)
VH: QVQLQESGPGLVKPSQTLSLTCTVSGGSITSGYYWNWIRQHPGKGLEWIGYITFDGINNYNPSLKSRVTISRDTSKNQFSLKLSSVTAADTAVYYCADFDYWGQGTLVTVSS
VL: DIQMTQSPSSLSASVGDRVTITCRASQGIRNYLNWYQQKPGKAPKLLIYYTSSLHSGVPSRFSGSGSGTDFTLTISSLQPEDFATYYCQQYSKLPWTFGQGTKVEIK
With B4, the Kd came out at 9.9 nM in the test with Cynomolgus MCSP D3 and 12.6 nM with Human MCSP D3.

B5: M4-3 (C1) ML2 (G3) (antibody, human IgG1, kappa, V domains shown)
VH: QVQLQESGPGLVKPSQTLSLTCTVSGGSITSGYYWNWIRQHPGKGLEWIGYITFDGSNNYNPSLKSRVTISRDTSKNQFSLKLSSVTAADTAVYYCADFDYWGQGTLVTVSS
VL: DIQMTQSPSSLSASVGDRVTITCRASQGIRNYLNWYQQKPGKAPKLLIYYTSSLHSGVPSRFSGSGSGTDYTLTISSLQPEDFATYYCQQYSALPWTFGQGTKVEIKR
As to B5, the Kd in the test with Cynomolgus MCSP D3 stood at 1.3 nM; with Human MCSP D3 it was 1.6 nM.

B6: M4-3 (A7) ML2 (antibody, human IgG1, V domains shown)
VH: QVQLQESGPGLVKPSQTLSLTCTVSGGSITDGYYWNWIRQHPGKGLEWIGYITFDGRNNYNPSLKSRVTISRDTSKNQFSLKLSSVTAADTAVYYCADFDYWGQGTLVTVSS
VL: DIQMTQSPSSLSASVGDRVTITCRASQGIRNYLNWYQQKPGKAPKLLIYYTSSLHSGVPSRFSGSGSGTDFTLTISSLQPEDFATYYCQQYSKLPWTFGQGTKVEIK
In the case of B6, the Kd came to 16.3 nM in the test with Cynomolgus MCSP D3 and 7.1 nM in the test with Human MCSP D3.

B7: M4-3 (A7) ML2 (C5) (antibody, human IgG1, V domains shown)
VH: QVQLQESGPGLVKPSQTLSLTCTVSGGSITDGYYWNWIRQHPGKGLEWIGYITFDGRNNYNPSLKSRVTISRDTSKNQFSLKLSSVTAADTAVYYCADFDYWGQGTLVTVSS
VL: DIQMTQSPSSLSASVGDRVTITCRASRGIREYLNWYQQKPGKAPKLLIYYTGSLHSGVPSRFSGSGSGTDFTLTISSLQPEDFATYYCQQYSELPWTFGQGTKVEIK
Turning to B7, the equilibrium dissociation constant (Kd) in the test with Cynomolgus MCSP D3 worked out at 1.1 nM; in the test with Human MCSP D3, 0.002 nM.

B8: M4-3 (C1) ML2 (E10) (antibody, human IgG1, V domains shown)
VH: QVQLQESGPGLVKPSQTLSLTCTVSGGSITSGYYWNWIRQHPGKGLEWIGYITFDGSNNYNPSLKSRVTISRDTSKNQFSLKLSSVTAADTAVYYCADFDYWGQGTLVTVSS
VL: DIQMTQSPSSLSASVGDRVTITCRASYGIRGYLNWYQQKPGKAPKLLIYYTSSLHSGVPSRFSGSGSGTDFTLTISSLQPEDFATYHCQQYSKLPWTFGQGTKVEIK
B8: the Kd in the test with Cynomolgus MCSP D3 worked out at 4.5 nM; in the test with Human MCSP D3, 3.9 nM.

B9: M4-3 (A7) ML2 (G3) (antibody, human IgG1, V domains shown)
VH: QVQLQESGPGLVKPSQTLSLTCTVSGGSITDGYYWNWIRQHPGKGLEWIGYITFDGRNNYNPSLKSRVTISRDTSKNQFSLKLSSVTAADTAVYYCADFDYWGQGTLVTVSS
VL: DIQMTQSPSSLSASVGDRVTITCRASQGIRNYLNWYQQKPGKAPKLLIYYTSSLHSGVPSRFSGSGSGTDYTLTISSLQPEDFATYYCQQYSALPWTFGQGTKVEIK
For B9, the Kd with Cynomolgus MCSP D3 worked out at 1.5 nM; with Human MCSP D3, 0.009 nM.

B10: M4-3 (A7) ML2 (E10) (antibody, human IgG1, V domains shown)
VH: QVQLQESGPGLVKPSQTLSLTCTVSGGSITDGYYWNWIRQHPGKGLEWIGYITFDGRNNYNPSLKSRVTISRDTSKNQFSLKLSSVTAADTAVYYCADFDYWGQGTLVTVSS
VL: DIQMTQSPSSLSASVGDRVTITCRASYGIRGYLNWYQQKPGKAPKLLIYYTSSLHSGVPSRFSGSGSGTDFTLTISSLQPEDFATYHCQQYSKLPWTFGQGTKVEIK
On to B10, for which the dissociation constant (Kd) with Cynomolgus MCSP D3 is 8.5 nM; in the test with Human MCSP D3 it was 3.1 nM.

B11: M4-3 (C1) ML2 (C5) (antibody, human IgG1, V domains shown)
VH: QVQLQESGPGLVKPSQTLSLTCTVSGGSITSGYYWNWIRQHPGKGLEWIGYITFDGSNNYNPSLKSRVTISRDTSKNQFSLKLSSVTAADTAVYYCADFDYWGQGTLVTVSS
VL: DIQMTQSPSSLSASVGDRVTITCRASRGIREYLNWYQQKPGKAPKLLIYYTGSLHSGVPSRFSGSGSGTDFTLTISSLQPEDFATYYCQQYSELPWTFGQGTKVEIK
Take B11: the dissociation constant (Kd) with Cynomolgus MCSP D3 turned out to be 0.12 nM; in the test with Human MCSP D3, 0.003 nM.

B12: M4-3 ML2 (C5) (antibody, human IgG1, V domains shown)
VH: QVQLQESGPGLVKPSQTLSLTCTVSGGSITSGYYWNWIRQHPGKGLEWIGYITYDGSNNYNPSLKSRVTISRDTSKNQFSLKLSSVTAADTAVYYCADFDYWGQGTLVTVSS
VL: DIQMTQSPSSLSASVGDRVTITCRASRGIREYLNWYQQKPGKAPKLLIYYTGSLHSGVPSRFSGSGSGTDFTLTISSLQPEDFATYYCQQYSELPWTFGQGTKVEIK
Take B12: the Kd turned out to be 5.7 nM with Cynomolgus MCSP D3 and 0.8 nM in the test with Human MCSP D3.

B13: M4-3 (D6) ML2 (antibody, human IgG1, V domains shown)
VH: QVQLQESGPGLVKPSQTLSLTCTVSGGSITSGYYWNWIRQHPGKGLEWIGYITFDGKNNYNPSLKSRVTISRDTSKNQFSLKLSSVTAADTAVYYCADFDYWGQGTLVTVSS
VL: DIQMTQSPSSLSASVGDRVTITCRASQGIRNYLNWYQQKPGKAPKLLIYYTSSLHSGVPSRFSGSGSGTDFTLTISSLQPEDFATYYCQQYSKLPWTFGQGTKVEIK
As for B13, the Kd with Cynomolgus MCSP D3 is 24.6 nM; with Human MCSP D3, 15.1 nM.

B14: M4-3 ML2 (C5/G3) (antibody, human IgG1, V domains shown)
VH: QVQLQESGPGLVKPSQTLSLTCTVSGGSITSGYYWNWIRQHPGKGLEWIGYITYDGSNNYNPSLKSRVTISRDTSKNQFSLKLSSVTAADTAVYYCADFDYWGQGTLVTVSS
VL: DIQMTQSPSSLSASVGDRVTITCRASRGIREYLNWYQQKPGKAPKLLIYYTGSLHSGVPSRFSGSGSGTDFTLTISSLQPEDFATYYCQQYSALPWTFGQGTKVEIK
As for B14, the values for the Kd in the test with Cynomolgus MCSP D3 and in the test with Human MCSP D3 were 12.8 nM and 4.2 nM, respectively.

B15: M4-3 (B8) ML2 (antibody, human IgG1, V domains shown)
VH: QVQLQESGPGLVKPSQTLSLTCTVSGGSITSGYYWNWIRQHPGKGLEWIGYITFDGRNNYNPSLKSRVTISRDTSKNQFSLKLSSVTAADTAVYYCADFDYWGQGTLVTVSS
VL: DIQMTQSPSSLSASVGDRVTITCRASQGIRNYLNWYQQKPGKAPKLLIYYTSSLHSGVPSRFSGSGSGTDFTLTISSLQPEDFATYYCQQYSKLPWTFGQGTKVEIK
With B15, the Kd is 28.8 nM with Cynomolgus MCSP D3 and 19.2 nM with Human MCSP D3.

Source of the values: US20140242083A1 (Hoffmann-La Roche, published 2014).
